What was measured:
[1] = system: Agouti-yellow mice; assay: Intraperitoneal administration of nesfatin-1 to Agouti-yellow mice, food intake; assay type: in vivo, mouse; settings: nesfatin-1 (10 pmol) ip, 0-3 hours
Excerpt: In the experiment on the animal model of obesity, C57BL/6J mice were used as the control group and Agouti-yellow mice were used as the animal model of obesity, and these animals were purchased from Nippon Charles River (Jackson Lab.). The housing condition and the week age of the mice used were similar to those for the ICR mice, whereas individuals weighing 25-28 g for the control group mice and individuals weighing 31-38 g for the Agouti-yellow mice were selected and used. […] Other conditions were similar to those in the above.
(§1) Each mouse that received administration was placed in an individual cage, and during 0-3 hours after the administration the weight decreased of the pellet food was measured to determine the amount of food intake. For testing of significant difference, analysis of variance was used.

[2] = system: Zucker fa/fa rats; assay: nesfatin-1 administration into the third ventricle of Zucker fa/fa rats, food intake; assay type: in vivo, rat; settings: recombinant mouse nesfatin-1 5 pmol
Protocol: (§2) As rats, 8 week-old male Zucker fa/fa (Zucker) rats and Zucker +/+(Lean) rats as the control animal were purchased from Nippon Charles River, and were housed in a cycle of 12 hours of the light period from 6 a.m. to 6 p.m. and 12 hours of the dark period from 6 p.m. to 6 a.m. the next morning and fed a powder food (Nippon Clea, CE-2), and kept at 22° C., and throughout the experiment period, a similar condition was continued in housing. After preliminary housing of the purchased rats for over one week, individuals weighing 200-250 g were selected from among 9 to 10 week-old individuals.
(§3) The sample used for administration was one in which the recombinant mouse nesfatin-1 prepared in Working Example 16 was dissolved to 5 pmol in 5 μl of PBS, and as the control sample physiological saline (Saline) was used. Five μl of the samples prepared were administered into the third ventricle of each rat for the group of five each of Zucker rats and the Lean rats per group (the Zucker/nesfatin-1 group, the Lean/nesfatin-1 group, the Zucker/Saline group, the Lean/Saline group). […]
(§4) After intraventricular administration, the amount of food intake was determined by measuring the amount decreased of the powder food for each rat during 0-1 hour, 1-3 hours and 3-6 hours. […]

[3] = system: rats; assay: Continuous administration of nesfatin-1 into the rat ventricle, weight of adipose tissue; assay type: in vivo; settings: 5 pmol per day, third ventricle, 10 days; vs saline
Protocol: Nesfatin-1 (5 pmol per day) or physiological saline alone (the control group) was administered into the third ventricle of a rat using an osmotic pump for 10 consecutive days (5 and 4 rats were used per group). Intraventricular administration into rats by the osmotic pump was carried out in a manner similar to that in Working Example 13.
After the administration of nesfatin-1 or physiological saline alone for 10 days, each rat was sacrificed, dissected to excise all of the abdominal subcutaneous adipose tissue, the epididymal adipose tissue (these are white adipose tissue) and the retroperitoneal brown adipose tissue, and the weight of them was measured. Also, the gastrocnemial muscles of the bilateral hind legs were harvested and the weight of them was measured. From the weight of the tissues measured, their ratio to the body weight of each individual was determined (tissue weight/body weight, mg/g). For testing of significant difference, analysis of variance was used.

[4] = system: mice; assay: Intraperitoneal and subcutaneous administration of nesfatin-1 to mice, food intake; assay type: in vivo, mouse
Protocol: (§5) The sample used in the administration was the recombinant mouse nesfatin-1 prepared in Working Example 16 dissolved in 200 μl of physiological saline so as to contain 10 nmol, and as the control sample, physiological saline (Saline) alone was used. Using a tuberculin syringe equipped with a 25G needle, 200 μl each of the samples was administered once into the abdominal cavity or the hypodermis of the back of each mouse, and the time of administration was immediately before the start (6 p.m.) of the dark period. Other conditions were similar to those in Working Example 18.

[5] = system: C57BL/6J mice; assay: Intraperitoneal administration of nesfatin-1 to c57BL/6J mice, food intake and blood biochemical parameters; assay type: in vivo; settings: recombinant mouse nesfatin-1 10 nmol ip; 0-3 hours; vs saline
Protocol: As experimental animals, 7 week-old male c57BL/6J mice were purchased from Nippon Clea, and were housed in a cycle of 12 hours of the light period from 6 a.m. to 6 p.m. and […] of the dark period from 6 p.m. to 6 a.m. the next morning and were allowed free access to a pellet food (Nippon Clea, CE-2), and kept at 22° C.
Into the abdominal cavity of the c57BL/6J mice, 10 nmol of recombinant mouse nesfatin-1 prepared in Working Example 16 dissolved in 100 μl of physiological saline was administered, and as the control sample physiological saline alone was used. Using a tuberculin syringe equipped with a 26G needle, 100 μl each of the sample was administered once into the abdominal cavity of each mouse (5 animals per group), and the time of administration was immediately before the start (6 p.m.) of the dark period.
Each mouse that received administration was placed in an individual cage, and during 0-3 hours after the administration the weight decreased of the pellet food was measured to determine the amount of food intake. Also, 3 hours after the administration each mouse was sacrificed by decapitation to collect whole blood, and serum was collected therefrom. For the serum, the contents of glucose, total cholesterol and triglyceride were measured using commercial reagents for determination (KYOWA MEDEX, Determiner L GLUII, Determiner L TCII, Determiner L TGII).

[6] = system: Zucker +/+ (Lean) rats; assay: nesfatin-1 administration into the third ventricle of Zucker +/+ (Lean) rats, food intake; assay type: in vivo, rat; settings: recombinant mouse nesfatin-1 5 pmol
Protocol: as §2, §3, §4

[7] = system: ICR mice; assay: Intraperitoneal administration of nesfatin-1 to ICR mice, food intake; assay type: in vivo, mouse; settings: 0-3 hours
Protocol: The experimental animal was 7 week-old male ICR mice purchased from Japan SLC, Inc., and were housed after purchase in a cycle of 12 hours of the light period from 6 a.m. to 6 p.m. and 12 hours of the dark period from 6 p.m. to 6 a.m. the next morning with free access to a pellet food (Nippon Clea, CE-2), kept at 22° C., and housing was continued in a similar condition during the experiment period. The mice purchased were subjected to preliminary housing for over one week, individuals weighing 35-40 g were selected among 8 to 9 week-old individuals and were used in the experiment.
as §5, with “contain 2 nmol,” for “contain”, “10 nmol or 50” for “10”, “sample” for “samples”, “cavity” for “cavity or the hypodermis of the back”, “mouse (5 animals per group),” for “mouse,”, “period.” for “period. Other conditions were similar to those in Working Example 18.”
as §1

[8] = 0-1 hour and 1-3 hours, P<0.001 vs Saline

B1: nesfatin-1: 82-residue peptide, amino acid Nos. 25 to 106 of nesfatin (SEQ ID NO: 15), solid-phase synthesis (peptide, listed as Rattus norvegicus)
chain: VPIDVDKTKVHNVEPVESARIEPPDTGLYYDEYLKQVIEVLETDPHFREKLQKADIEEIRSGRLSQELDLVSHKVRTRLDEL
amount of food intake [1]: significantly decreased | amount of food intake [2, 8]: significant reduction | amount of food intake ([2]; 3-6 hours, P<0.05): significant reduction | ratio of tissue weight to body weight, abdominal subcutaneous adipose tissue [3]: significant decreases | ratio of tissue weight to body weight, brown adipose tissue [3]: no significant difference | ratio of tissue weight to body weight, epididymal adipose tissue [3]: significant decreases | ratio of tissue weight to body weight, gastrocnemial muscle [3]: no significant difference | ratio of tissue weight to body weight, mesenteric adipose tissue [3]: significant decreases | ratio of tissue weight to body weight, retroperitoneal adipose tissue [3]: tended to decrease but no significant difference | amount of food intake ([4]; 10 nmol intraperitoneally (ip), 0-3 hours, P<0.05 vs saline): statistically significant decrease | amount of food intake ([4]; 10 nmol intraperitoneally (ip), 0-14 hours): the decrease in the amount of food intake was not significant | amount of food intake ([4]; 10 nmol subcutaneously (sc), 0-3 hours): tended to decrease | amount of food intake ([4]; 10 nmol subcutaneously (sc), 0-14 hours, P<0.005 vs saline): the decrease was significant | amount of food intake [5]: significantly reduced | amount of food intake [6, 8]: decreased | amount of food intake ([6]; 3-6 hours): No difference | amount of food intake ([7]; recombinant mouse nesfatin-1 2 nmol per mouse ip, vs Saline): decreases in the amount of food intake | amount of food intake ([7]; recombinant mouse nesfatin-1 10 nmol per mouse ip, p<0.05): statistically significant decreases in the amount of food intake | amount of food intake ([7]; recombinant mouse nesfatin-1 50 nmol per mouse ip, p<0.005): statistically significant decreases in the amount of food intake
